# According to the supplement of paper PMC12764529:
# ± gives the half width of the 95% confidence interval.
# How the values were obtained:
# [1] = folding stability dG unfold from trypsin proteolysis; higher = more stable
# Procedure, shortened: (§1)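 Designed mini-proteins with no cysteine and under 80 residues were kept only if AlphaFold2 dimer inter-PAE was above 15. In a PA-tagged cDNA display construct, they were digested with trypsin and chymotrypsin and then sequenced. K50 was inferred by Bayesian fitting of counts, and unfolding free energy was derived per protease or combined against a sequence-predicted unfolded-state K50 and a shared folded-state K50.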
# [2] = folding stability dG unfold (combined trypsin and chymotrypsin); higher = more stable
# Procedure, shortened: as §1
# [3] = folding stability dG unfold from chymotrypsin proteolysis; higher = more stable
# Procedure, shortened: as §1
Sequence,folding stability dG unfold [1] [kcal/mol],folding stability dG unfold [2] [kcal/mol],folding stability dG unfold [3] [kcal/mol]
SAGGSAEIEVTVYYDPETGEILVLINFPDETKFEVAVEEFKKLFEKVEAVKLPDGSVLVRSPLKDASAGGSA [r15_1057_TrMRF],1.65 ± 0.12,1.59 ± 0.12,1.7 ± 0.071
SAGGSAGGSPVVLYEVDPSTNSVTLTVEVLHPDGTPLRKEYTTNGDPLEAALRFAKAVLEEAGSAGGSAGGS [r20_33_TrMRF],0.407 ± 0.21,0.699 ± 0.12,0.813 ± 0.17
SAGGSAGGKEVKIEIYDSDDGILLVEVPDLDDAVEAVEKLGVELELVPYDPEKGRLLLRLRIPGSAGGSAGG [r6_510_TrMRF],0.26 ± 0.21,0.64 ± 0.16,0.8 ± 0.2
SMKVTVTVERLPDGRGRITITINDSTLEIEVPPGLDPEELRAFAEETAKEIEEKLKEEGNPVTIEEITLSSA [r9_751_JUSTAS],2.58 ± 0.14,2.15 ± 0.24,1.61 ± 0.14
SAGGATRIRVLATNASGEKVELDIPQAIADAIAEALKQGKPIPPGPASVIAAFATSNGYDFEIVDISSAGGS [r8_159_TrMRF],2.02 ± 0.062,2.85 ± 0.093,3.106 ± 0.031
SAVSTAQLPDDTTLTTITLPGDPSVTLTITTRKLPDGTPYLDATITLPDGTPVTVTFPAGTEAAVIAALASA [r9_310_JUSTAS],2.51 ± 0.097,2.44 ± 0.086,2.46 ± 0.029
SAGGSAGGSAGGMYFIRIKPPNGEELVILIPPGDEIKIKDADGRPWKITDVYPMPPEQFSAGGSAGGSAGGS [r10_422_TrROS],-0.17 ± 0.27,0.0506 ± 0.41,-0.118 ± 0.73
SAGGSAGGSAGKMLLIEIEVDGKKYLIEIEVPEGEEITPEELAKLLGIPNVKVKVYELEESAGGSAGGSAGG [r11_219_TrROS_Hall],2.47 ± 0.065,3.11 ± 0.13,3.41 ± 0.04
SAGGPRVFRLTYLDPETGEPRELRFSLPVPPAPDFISVYVNVPPELARRIAELLRELYPDKPVLVHRSAGGS [r8_437_TrMRF],2 ± 0.036,2.68 ± 0.049,2.971 ± 0.019
SAGGSTLEEIKAAVIKAAEAGEKEAEIEAPLPDGGKLRILKGGVIEFIPEDGVPKRLKISVSEIKVSAGGSA [r2_97_TrMRF],-1.2 ± 0.75,0.0476 ± 0.26,0.451 ± 0.36
SAGGRAVLLATFTTPDGSLVLVYEDPATGRVLVVSFDPSTGRVSVLRLRRVPNTGDLFIEDRATFPLSSAGG [r19_249_TrMRF],3.51 ± 0.059,3.97 ± 0.12,4.36 ± 0.12
SAGGSAGGSAMKTYTLEQIEELLKSLPEEEIEEVKIEEKEGKKVIYVKTKDGREIEIVVEPSAGGSAGGSAG [r3_291_TrROS_Hall],2.86 ± 0.2,2.98 ± 0.13,3.19 ± 0.052
SAGGSAGGGPKVTVEVTESKVYELEDGSYVAVNTYTVTFEAEGKTVKVTFYRTFPKGFAGGPFSSAGGSAGG [r6_799_TrMRF],2.28 ± 0.064,2.42 ± 0.17,2.57 ± 0.14
SAGGSAGGSAGWFFVMDIKYEYRQTPDGKTEQEMSIEMKPIPPIPAEDLKEKLGLPPEDIASAGGSAGGSAG [r3_338_TrROS],0.937 ± 0.067,1.94 ± 0.17,2.62 ± 0.11
SAGGSPSMSPEELAKREKERILEELRKKGGSKTIPMKVEITVPDEKGNTTKYNIEINITVEVPEDKLSAGGS [r16_550_JUSTAS],0.622 ± 0.082,0.974 ± 0.15,1.31 ± 0.1
SAGGSSLTTPDGVKVEVYENPENNTIYVFEKKPDGTYTLKTLTKEGDKVTEVSTKTIKSNEKEKLLSAGGSA [r2_336_JUSTAS],0.966 ± 0.029,1.52 ± 0.069,1.81 ± 0.081
SAGGSAGGSAGGKPKVIVIEGMSLEEIKALLAELPEDVTIVVRLPDGSTRTLTVRLPEPSAGGSAGGSAGGS [r10_514_TrROS_Hall],1.78 ± 0.077,1.48 ± 0.095,1.13 ± 0.077
SAGGSAMLPDEVTVKPVEMPVPPDLTLEELEQEVRERAGPGTSVEVSYDPATGVATVTVTDARPALSAGGSA [r15_749_JUSTAS],-0.162 ± 0.035,1.03 ± 0.04,1.44 ± 0.029
SAGGSKPKTVEITLEVDGKKVKITVTEKDGKLTVTITFPDGTKLTIELPENMSIEEALKKALEALKSAGGSA [r2_92_TrROS_Hall],3.28 ± 0.13,2.87 ± 0.096,2.4 ± 0.062
SAGSVEVSVSGNEIHITAPEGISLEELIELIKKLFPGADIGEVSVEKLPDGRYVATFKAGFKPPSPDELSAG [r5_110_TrMRF],4.41 ± 0.25,4.34 ± 0.12,4.29 ± 0.14
SAGGLNIKFEILEVYPSPNGMRMIIVRMTIEYPVPVYRRDPNGEWRPMPPGQEPVTIEIDFYIMVTPSAGGS [r16_693_TrROS],3.67 ± 0.11,4.76 ± 0.18,5.11 ± 0.13

Sequence,folding stability dG unfold [1] [kcal/mol],folding stability dG unfold [2] [kcal/mol],folding stability dG unfold [3] [kcal/mol]
SAGGSAGGSAVPLTVLEEEKGEGTVVVITRGPDGKLIVTTYTKDPNSEKWTEKRTVLAPEELLSAGGSAGGS [r20_70_JUSTAS],1.73 ± 0.022,1.98 ± 0.054,2.08 ± 0.067
SAGGMVLVRIRVDMSPEERKRLEEELRKRVTEVRYLPEDEDVVEVRVSPEALAELPEERITEVELLPSAGGS [r16_328_TrROS_Hall],0.217 ± 0.15,-0.0298 ± 0.097,-0.654 ± 0.32
SAGGSAGGSGNATVMLMFPIEISITVMEWDNGKPKMKTQEIEIWVMIMIPVPPPPDPGDPEWNSAGGSAGGS [r12_713_TrROS],2.84 ± 0.076,3.76 ± 0.11,4.09 ± 0.071
SAGGSAGGSAPKEVVVLDLKISPVPDPRYFPAEFTVYIPENGKPFPVTAVFDPEGGEVTIGSAGGSAGGSAG [r3_1_TrMRF],2.7 ± 0.071,3.04 ± 0.12,3.23 ± 0.1
SAGGKLLEELNVEKVEVVEVKEFSLPPLPLLVLLPTVTVTFKDGSKVKFKVLFLYDPSNPKPIVVAGSAGGS [r8_422_TrMRF],2.42 ± 0.1,3.07 ± 0.16,3.64 ± 0.048
SMLKEIPITVPEEGEVVTVNIEELAKEQGLDPNNVTVTVTSSGPGKVYKITISSNGITITEVGNVPTALLSA [r9_819_JUSTAS],0.546 ± 0.04,0.717 ± 0.081,0.684 ± 0.098
SAGGMSITITTNAPKEVLLRFIKDLAEEIGVEVDVEVTVEPLEDGPIVTAHVHIDPKEPEVPLEELFSAGGS [r16_262_TrMRF],0.75 ± 0.018,0.642 ± 0.085,0.384 ± 0.074
SAGGSAGGSAAITIPVPPGETVTIKIEIEMTVPPNQRNPDGQRMKPGQKVRMEVTFTFRVDGSAGGSAGGSA [r18_450_TrROS],3 ± 0.11,4.24 ± 0.13,4.63 ± 0.058
SAGGSAGGSAGKPNIKKEANLEIFVTEDELEKALEIVKKLEEEGIEVKEAKIYVLKPEEGSAGGSAGGSAGG [r11_533_TrMRF],-0.858 ± 0.23,-0.318 ± 0.21,-0.299 ± 0.39
SAGLLEVLRKIAEELGWELTSVEVHELPDGSVVATGEFRKGDRTYRVDIRYDPETGRVEVRLEPVPVPESAG [r14_784_TrMRF],4.6 ± 0.22,> 6,5.51 ± 0.2
SAGDTISIMIPPGMSGERAVNQIKYIAREQKENGKKRKITIWMPDPMRARFIKKALDEKGIPIEIEFWSAGG [r19_268_TrROS],1.24 ± 0.049,1 ± 0.1,0.766 ± 0.11
SAGGSAGGSAGGALLVTPTPDGYIARVKDPNSDSWTVVPLSPEELEELAAAGVPTVEVLPSAGGSAGGSAGG [r7_266_JUSTAS],-0.336 ± 0.32,1.09 ± 0.16,1.46 ± 0.064
SAGGSAGGSAGGKPKVIEIEITDKNGKKRKIKLIEKDGYVYLYDEKTGKLVKKFKLKDLSAGGSAGGSAGGS [r10_589_TrROS_Hall],3.04 ± 0.097,3.61 ± 0.14,3.92 ± 0.051
SAGGSKKKIEKIEIEIEIKNKDGKTYKIKAEIEKVELKDGKVAKIRLEIYNENGEKIAEFEFEIKISAGGSA [r2_215_TrROS_Hall],2.08 ± 0.15,3.61 ± 0.23,4.03 ± 0.19
SAGGSMLFLRVRIEVRPPTAEDLAEGKEVKEVEILVEFDSVEELKEALEKLPPNAKVEVELVELEESAGGSA [r2_25_TrROS_Hall],2.36 ± 0.26,2.83 ± 0.53,2.9 ± 0.17
SAGGSAGGSAGGSKPKMYILKIKIKVEVKYDKETNEIVEEEIEIEIEIIEVKPGEKLELSAGGSAGGSAGGS [r4_175_TrROS_Hall],1.42 ± 0.13,2.52 ± 0.35,3.28 ± 0.092
SMKSEEEKKAKELKKQKPVIVFDKETGKITVYDAKTGKKIEIEVKVKKTKDGKVEPLTEEELKKLLKKLASA [r9_1056_TrROS_Hall],1.63 ± 0.077,1.12 ± 0.38,1.19 ± 0.28
SAGGESTPEIEPVATLELPTPDGRPITVEVYRLKDGTVRVVVRNPNPPETITLTIPAKEGETIPIFLSAGGS [r16_566_TrMRF],1.9 ± 0.04,2.11 ± 0.067,2.2 ± 0.045
SAGGSAGGPLRIEIEIKIEIFPFPDGWYLIRMTIKIKVYNPGEDGQPIAEYEITFYFIIPPGDFSAGGSAGG [r6_60_TrROS],4.25 ± 0.17,> 6,6.06 ± 0.15
SAGGMPPENIKEITEVERNPDGMKEITIEMEDPELAKQGNPEQVDQMAEWLQDEFPDRGIPVTIEPGPSAGG [r13_243_TrROS],0.514 ± 0.081,0.0457 ± 0.28,-0.435 ± 0.28
SAGGKPPKIVVKVEKAPNPETGTYTYKVVLYDPVTGKAYVKPVKTKTPEELEKKAKEVAEELAKELASAGGS [r8_480_TrMRF],0.727 ± 0.025,1.17 ± 0.084,1.34 ± 0.12
